According to the supplement of paper PMC10567573:

B1: ZBTB22 (parent)
chain: AVLAASSPYFHDQVLLKGMTSISL

Variants of: B1
Experiment: protein stability index of a GFP-peptide fusion (GPS, HEK-293T) (PSI 1-6); higher = more stable
Details: c terminus: a fixed tail appended
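Note: lentivirally expressed fusions sorted by FACS into six bins by GFP to DsRed ratio, PSI derived from sequencing read proportions per bin multiplied by bin number.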

Protein stability index, by site and new letter:
A5: H 2.04 | N 2.66 | L 2.21 | Y 2.44 | S 2.6 | K 3.55 | Q 3.23 | W 1.88 | F 2.98
S7: L 2.91 | D 3.38 | I 4.5 | V 2.11 | W 2 | Y 1.47 | T 3.75 | E 2.33 | H 2.8
V14: T 2.96 | P 1.63 | N 2.07 | Y 2.25 | E 2.47 | F 1.8 | C 3.27 | R 3.36 | A 2.47 | D 1.71 | H 2.37 | K 1.04 | S 3.06 | Q 1.73 | M 2.72
S6: W 3.82 | E 1.41 | T 2.4 | G 2.75 | K 2.05 | D 2.61 | Q 3.02 | N 3.54 | I 1.97 | P 2.23 | R 1.67
P8: H 2.88 | D 2.5 | F 2.55 | A 2.55 | R 4.82 | L 3.83 | I 2.73 | G 3.22
A4: S 1.88 | Y 2 | F 2.24 | H 4.29 | G 1.92 | I 2.48 | D 1.15 | K 2.92 | M 2.04 | E 2.48 | L 2.9 | P 1.05
L15: P 1.3 | N 2.76 | K 2.3 | C 1.87 | M 1.94 | Q 1.76 | E 1.38 | I 3.58 | H 1.4 | G 3.34 | D 2.77 | A 1.66 | F 3.52
K17: I 3.47 | N 1.43 | P 2.05 | Y 2.88 | A 1.94
F10: Y 2.19 | S 1.87 | H 2.49 | R 1.41 | D 2.04 | K 1.73 | P 1 | V 2.44 | C 2.28 | G 2.6 | W 2.24 | Q 1.65 | N 1.92 | E 1.76 | M 2.72
T20: M 3.42 | N 2.51 | Q 2.14 | I 2.3 | K 2.32 | L 3.1 | E 2.54 | H 1.6
H11: T 3.44 | S 2.71 | P 2.11 | D 3.15 | I 1.58 | L 1.89 | M 4.12
V2: C 1.04 | E 1.41 | H 2.52 | T 1.45 | S 2.33 | W 1.79 | N 1.63 | K 1.97 | I 2.75 | R 2.15 | D 2.17 | Q 1.62
Y9: V 2.54 | H 1.33 | A 1.37 | P 1.84 | N 2.96 | I 4.18 | F 3.55 | E 2.05 | D 2.17
M19: P 3.42 | G 1.04 | W 1.8 | K 1.37 | A 2.09 | L 2.23 | Q 1.46 | S 2.68 | T 2.57 | E 1.69 | R 2.92 | C 3.68
D12: W 2.12 | P 3.38 | L 2.57 | Y 3.7 | N 1.98 | K 1.39 | T 2.95 | A 2.68 | R 3.23 | Q 3.51
G18: H 1.84 | N 2.37 | D 3.05 | E 1.46 | I 2.8 | F 3.77 | V 2.66 | Y 3.35 | K 2.14 | A 3.06 | W 2.61 | S 3.59
